Laboratory results as given in publication PMC2900298.

Target: HSV1(F) viral capsids treated with 0.5 M KCl (HSV1 strain F) (UniProt P10219)
Assay: immunoelectron microscopy (immunogold labelling of capsids, negative staining); capsids incubated with […] pig brain cytosol, adsorbed on grids, labelled with antibodies against MAP subunits and protein-A gold; gold per mono-disperse capsid counted, labelling of capsids in buffer subtracted as background

Sequence of UniProt P10219 (P10219 whole entry, looked up): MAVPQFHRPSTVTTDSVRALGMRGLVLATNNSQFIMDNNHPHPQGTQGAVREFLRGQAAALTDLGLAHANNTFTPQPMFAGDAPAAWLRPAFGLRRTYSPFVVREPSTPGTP

Substance | gold particles per capsid above background [gold/capsid] | percent of capsids with more than one complex, background taken into account [%] | percent of capsids with two labels [%]
kinesin-1 of pig brain (complex) | 0.5 | 10 | 20
kinesin-2 of pig brain cytosol (complex) | 0.5 | – | 8
cytoplasmic dynein of pig brain cytosol (complex) | 0.75 | 20 | 40
